Measurements as given in publication PMC12583656, “Conserved interfaces mediate multiple protein–protein interactions in a prokaryotic metabolon” (Molecular Systems Biology, 2025).
Residue numbers refer to the chain shown, from its start. Numbers in names are those of the source.

B1: DHFR, wild type, purified protein (enzyme, E. coli)
chain: MISLIAALAVDRVIGMENAMPWNLPADLAWFKRNTLNKPVIMGRHTWESIGRPLPGRKNIILSSQPGTDDRVTWVKSVDEAIAACGDVPEIMVIGGGRVYEQFLPKAQKLYLTHIDAEVEGDTHFPDYEPDDWESVFSEFHDADAQNSHSYCFEILERR
notes: dihydrofolate reductase (DHFR, FolA) of E. coli; Expression and purification are not described; also called WT DHFR; WT-DHFR
B2: D132H DHFR, purified protein (enzyme, E. coli)
chain: B1 chain with D132H
notes: dihydrofolate reductase (DHFR) of E. coli with one substitution; as m28; Expression and purification are not described; also called D132H mutant of DHFR
B3: D144N DHFR, purified protein (enzyme, E. coli)
chain: B1 chain with D144N
notes: dihydrofolate reductase (DHFR) of E. coli with one substitution; as m28; Expression and purification are not described; also called D144N mutant of DHFR
B4: N23V DHFR, purified protein (enzyme, E. coli)
chain: B1 chain with N23V
notes: dihydrofolate reductase (DHFR) of E. coli with one substitution; as m28; Expression and purification are not described; also called N23V mutant of DHFR

What was measured:
[1] = target: adenylate kinase (Adk), split-YFP fusion (E. coli) (UniProt P69441); test: split reporter (BiFC, NanoBiT); split monomeric EYFP (155/156) in living E. coli BW27783; NYFP fusion IPTG-induced, CYFP fusion arabinose-induced (0.2% arabinose, 1 mM IPTG), 30 °C 4-5 h; mean fluorescence intensity (MFI) of 30,000 cells by flow cytometry; both configurations measured, the higher value used; inducers also titrated for three pairs
Chain of adenylate kinase (Adk), split-YFP fusion (E. coli) (P69441 whole entry, the tested form may be a part): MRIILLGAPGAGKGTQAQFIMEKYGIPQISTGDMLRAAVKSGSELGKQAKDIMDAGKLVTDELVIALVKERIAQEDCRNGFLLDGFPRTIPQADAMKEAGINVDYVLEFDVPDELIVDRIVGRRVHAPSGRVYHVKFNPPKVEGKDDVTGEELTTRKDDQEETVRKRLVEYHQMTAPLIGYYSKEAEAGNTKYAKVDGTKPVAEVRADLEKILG

[2] = target: T1, FolK, purified protein (E. coli, UniProt P26281 1-159); test: Raman spectroscopy; titration: DHFR 7.5-50 µM, FolK fixed at 15 µM; area of the interaction-specific peak at ~1663 cm^-1 against DHFR concentration, hyperbolic fit; details: both partners purified
T1 construct: FolK of E. coli (encoded by the gene folK); Expression and purification are not described
T1 sequence: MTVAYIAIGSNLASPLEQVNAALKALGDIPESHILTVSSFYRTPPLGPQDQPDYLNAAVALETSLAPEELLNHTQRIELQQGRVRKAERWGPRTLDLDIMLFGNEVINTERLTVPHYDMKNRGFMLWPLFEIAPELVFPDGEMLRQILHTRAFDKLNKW

Molecule | MFI (mean YFP fluorescence intensity) [1] | Kd [2]
dihydrofolate reductase (DHFR, FolA), split-YFP fusion (from UniProt P0ABQ4 1-159) (enzyme) | 641 | 
B1 |  | 22 µM
B2 |  | 8.1 µM
B3 |  | 10 µM
B4 |  | 5.1 µM
